Measured values from US20060121535.

How the values were obtained:
[1] = system: GST-EEEIYGEFE (SEQ. ID. NO: 1) fusion protein
GST-Crkl (SH3) = GST-Crkl (SH3) (UniProt P46109)
GST-Crkl (SH3), sequence (P46109 120-303): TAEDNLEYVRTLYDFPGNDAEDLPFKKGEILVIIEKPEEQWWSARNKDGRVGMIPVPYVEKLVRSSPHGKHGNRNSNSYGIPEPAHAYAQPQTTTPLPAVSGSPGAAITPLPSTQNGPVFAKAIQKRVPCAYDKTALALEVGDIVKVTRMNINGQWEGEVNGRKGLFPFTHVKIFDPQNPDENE

| Substance | Km of phosphorylation, substrate in solution (Lineweaver-Burk) [1] | Km of phosphorylation, surface-immobilized substrate (Lineweaver-Burk) [1] | Vmax of phosphorylation, substrate in solution (Lineweaver-Burk) [1] | Vmax of phosphorylation, surface-immobilized substrate (Lineweaver-Burk) [1] | Crkl phosphorylation in pure HL60 lysate (Bcr-Abl-) relative to pure K562 lysate (Bcr-Abl+) (GST-Crkl (SH3)) |
| --- | --- | --- | --- | --- | --- |
| protein-tyrosine kinase p60^c-src (Calbiochem) | Km=2.7±1.0 µM | Km=0.36±0.033 µM | Vmax=8.1±3.1 (arbitrary units) | Vmax=9.7±0.63 (arbitrary units) | – |
| Bcr-Abl tyrosine kinase in K562 cell lysate | – | – | – | – | the level of Crkl phosphorylation in the pure HL60 cell lysate is only 3.5% of that observed in the pure K562 cell lysate |
